The numbers were not newly measured in PMC11939966, which cites them from elsewhere.

The target of this series is Tristetraprolin (TTP) (Homo sapiens) (UniProt P26651). In words: ITC. A general note: ITC needs no label: the signal is the heat of the interaction.
UniProt P26651, sequence (P26651 whole entry): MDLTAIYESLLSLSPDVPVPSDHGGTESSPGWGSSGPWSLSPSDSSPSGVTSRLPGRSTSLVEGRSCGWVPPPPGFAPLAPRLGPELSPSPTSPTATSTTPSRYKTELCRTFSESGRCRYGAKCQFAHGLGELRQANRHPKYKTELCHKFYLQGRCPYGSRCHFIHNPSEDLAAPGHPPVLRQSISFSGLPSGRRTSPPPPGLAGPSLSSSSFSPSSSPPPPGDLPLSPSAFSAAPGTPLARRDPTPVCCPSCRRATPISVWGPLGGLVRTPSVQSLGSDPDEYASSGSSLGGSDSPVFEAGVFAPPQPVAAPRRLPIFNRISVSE

On to CNOT1 800-999 (from UniProt A5YKK6), for which the Kd (as a rule, the free concentration of one partner at which half of the binding sites on the other are occupied at equilibrium, for simple one-to-one binding) was 2 µM.
